# Source: article PMC5618700
# B1: Pneumolysin (PLY), wild type, His-tagged (natural protein, Streptococcus pneumoniae D39, UniProt Q04IN8 1-471, looked up)
# chain: MANKAVNDFILAMNYDKKKLLTHQGESIENRFIKEGNQLPDEFVVIERKKRSLSTNTSDISVTATNDSRLYPGALLVVDETLLENNPTLLAVDRAPMTYSIDLPGLASSDSFLQVEDPSNSSVRGAVNDLLAKWHQDYGQVNNVPARMQYEKITAHSMEQLKVKFGSDFEKTGNSLDIDFNSVHSGEKQIQIVNFKQIYYTVSVDAVKNPGDVFQDTVTVEDLKQRGISAERPLVYISSVAYGRQVYLKLETTSKSDEVEAAFEALIKGVKVAPQTEWKQILDNTEVKAVILGGDPSSGARVVTGKVDMVEDLIQEGSRFTADHPGLPISYTTSFLRDNVVATFQNSTDYVETKVTAYRNGDLLLDHSGAYVAQYYITWDELSYDHQGKEVLTPKAWDRNGQDLTAHFTTSIPLKGNVRNLSVKIRECTGLAWEWWRTVYEKTDLPLVRKRTISIWGTTLYPQVEDKVEND
# notes: no cleavage of the tag is described; also called PLY-WT
# Target: the molecule itself
# Test: SDS-PAGE without reducing agent (oligomerization assay) with Western blot; PLY 0.4 uM in solution without cholesterol or membranes, incubated 1 hr at 37°C with 0, 2.18, 4.36 or 8.73 uM EGCG (control with DMSO only); 5x loading buffer without β-ME, 10 min at 50°C; 6% SDS-PAGE, Western blot; oligomerization reduced by EGCG in a concentration-dependent manner
protein,measurement,value
B1,binding result,binds
